B1: minF1; a variant is named by its letters at N, in order (parent)
chain: GAGACCGCAACTGAAAAGTTGTTNNNNAANNNNGGNTNNATTTCTGCACGTAGAAGCAAAAGGC

Variants of B1 are the subject of this data set. The data set can be described thus: fraction ligated after 30 min (ligated reads / total reads); higher = more ligase activity. The conditions noted are these: with F1*subA RNA substrate (template-directed ligation), 42 °C. The procedure:
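Chip-synthesised pool of minF1 ligase ribozyme variants (single and double substitutions, single to quadruple deletions, bulge and P2 designed variants) was transcribed with T7 and reacted as a pool with excess substrate F1*subA for 30 min at 42 C in 50 mM EPPS pH 8.5, 25 mM MgCl2. Ligated and unligated RNAs were separated by PAGE, barcoded by RT and deep sequenced; fraction ligated = ligated reads / total reads, relative activity = FL / FL of wild-type minF1 (0.76); sequencing FL correlated with PAGE (R2 = 0.98). Sequences are the DNA template of the ribozyme.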
For ATCATGGTGTG, the fraction ligated was 0.00925.
In the case of ATCGGGATGTG A29T it was 0.0354; in that of ATCAATGTGTG A28G, 0.00324.
The same measure for TCAGTGGAGTT T23A G34T T37G: 0.00183.
For the variant ACAGTGATGTG, the fraction ligated was found to be 0.00312.
The same measure for ACAGTGATGTA: 0.00194; for TCAGAATGTGA: 0.00302.
TCGATGGTTGA: the fraction ligated stood at 0.00257.
In the case of TGAAGATGTGA T23A A28T A29G it was 0.00603.
Take TCAGTGGTGTG: the fraction ligated worked out at 0.00278.
The same measure for TCAGTGGTGTA: 0.00201.
Turning to ATCAAGTGTGA, the fraction ligated amounted to 0.00229.
The same measure for ATCGGGATGTG: 0.0285.
In the case of ATCGGGATGTA it was 0.00428; in that of ATAGATGAGTG G34T, 0.00408.
In the case of CAGAGGAGTGA T23A A29T it was 0.000641; in that of TCAGTGATGTG T23A, 0.00385; in that of TCAGAGATGTA T23A, 0.00211.
Consider CAGAGATGTGA T23A A29G, for which the fraction ligated was 0.00348.
With ATCAATGGGTA A28G, the fraction ligated was 0.000828.
As to TAAAGGATGTG T23A A29T, the fraction ligated was 0.00674.
The same measure for ATCAAAAGTGA A28G: 0.00266.
With ATAGGGATGTA, the fraction ligated was determined as 0.0024.
Consider ATCAAATAGTG A28G G34T, for which the fraction ligated turned out to be 0.0037.
In the case of ATCAAAGGGTT A28G G34A T37G it was 0.00203.
The same measure for ATCGGATGTGA A28T A29G: 0.012; for CAAAGGATGTG T23A A29T: 0.00761.
The same measure for CAGATGGATGA T23A: 0.00203.
For the variant TGAAGGATTGA A29T, the fraction ligated is 0.0036.
With ATCAATGAGTT G34T T37G, the fraction ligated turned out to be 0.00278.
In the case of ATCAGGTGTGA A28G A29T it was 0.00216; in that of ATCAAAGGGTG A28G G34T, 0.00328; in that of TCAGAGGAGTA, 0.
In the case of TCAGAGGAGTG it was 0.00573.
In the case of ACAGATGGGTT G34A G35T T37G it was 0.000596.
Consider CAGAGGATGTG T23A, for which the fraction ligated was determined as 0.00549.
ATCAAAATGTA A28G: the fraction ligated was found to be 0.0033.
With ACAATGGATGA, the fraction ligated worked out at 0.00232.
The same measure for TCAATGGGTGA: 0.00124; for ACGAGATGTGA A29G: 0.00268; for ATCAATAGTGA A28G: 0.00213.
Regarding TCAATATGTGA T23A, the fraction ligated was 0.00157.
The same measure for TGAAGATGTGA A29G: 0.00286; for TAAAGGATTGA A29T: 0.00151.
In the case of ATCAATGGGTG A28G it was 0.00414; in that of TAGATGGTGTG, 0.0042.
The same measure for TAGATGGTGTA: 0.00141.
Take ATAGTGGAGTT G34T T37G A40G: the fraction ligated turned out to be 0.000271.
On to AAGAGGATGTA A29T, for which the fraction ligated came out at 0.00173.
For the variant TCGATGGATGA T23A, the fraction ligated turned out to be 0.00236.
With ACAGTGGAGTA, the fraction ligated came to 0.00375.
In the case of AGAAGATGTGA T23C A28T A29G, the fraction ligated stood at 0.00411.
In the case of ATCAATGGGTT A28G G34T T37G it was 0.00191; in that of TCAAGGAGTGA T23A A29T, 0.00288.
The same measure for ATGATGGAGTG G34T: 0.011; for ATCGGGTGTGA A29T: 0.00298; for ATCAAAGGGTA A28G: 0.00291.
The same measure for AGAAGATGTGA T23C A29T: 0.00701; for ATAAGGAGTGA A29T: 0.00469.
With TAGATGGATGA, the fraction ligated stood at 0.00101.
With TCAGAATGTGA T23A, the fraction ligated stood at 0.00396.
With ATCAAATGGTT A28G G35T T37G A40G, the fraction ligated came out at 0.00187.
In the case of ATCATGGAGTG A28G G34T it was 0.0152; in that of ATCAATGGGTG G34T, 0.00622.
Turning to ATCAAAATTGA A28G, the fraction ligated came out at 0.00208.
With TAGAGGATGTG, the fraction ligated was 0.00216.
On to TAGATGAGTGA, for which the fraction ligated was found to be 0.00265.
Regarding CAGATGATGTA, the fraction ligated was 0.00303.
As to TCAGTGGTGTG T23A, the fraction ligated is 0.00413.
The same measure for ATCATGGAGTT G34T T37G A40G: 0.00188.
The same measure for CGAAGGTGTGA T23A A29T: 0.000502; for ATAGTGGGTGA: 0.00334; for TAGATGGAGTA: 0.00154.
Turning to ACAGATGAGTT G34T T37G, the fraction ligated was 0.000925.
The same measure for ACAATGGTGTG: 0.00545.
In the case of ACGATGGAGTG it was 0.0132; in that of ATCGAGGAGTT G34T T37G A40G, 0.000736; in that of ACGATGATGTG, 0.00517.
In the case of TGAAGGAGTGA A29T, the fraction ligated was 0.000652.
Take TCAAGATGTGA T23A: the fraction ligated came out at 0.0017.
The same measure for ATAGGGATTGA A29T: 0.0025; for ATCGATGATGA: 0.00308; for TCAGTGGAGTA: 0.00247.
CAAAGGATGTG A29T: the fraction ligated worked out at 0.0079.

These data come from the supplement of paper PMC6755084.
